# Molecular target: GLP-1 receptor (GLP-1 cyclase assay of Example 11) (UniProt P32301)
# Experiment: cell-based or functional assay
# Sequence of GLP-1 receptor (GLP-1 cyclase assay of Example 11) (P32301 22-463 limits assumed): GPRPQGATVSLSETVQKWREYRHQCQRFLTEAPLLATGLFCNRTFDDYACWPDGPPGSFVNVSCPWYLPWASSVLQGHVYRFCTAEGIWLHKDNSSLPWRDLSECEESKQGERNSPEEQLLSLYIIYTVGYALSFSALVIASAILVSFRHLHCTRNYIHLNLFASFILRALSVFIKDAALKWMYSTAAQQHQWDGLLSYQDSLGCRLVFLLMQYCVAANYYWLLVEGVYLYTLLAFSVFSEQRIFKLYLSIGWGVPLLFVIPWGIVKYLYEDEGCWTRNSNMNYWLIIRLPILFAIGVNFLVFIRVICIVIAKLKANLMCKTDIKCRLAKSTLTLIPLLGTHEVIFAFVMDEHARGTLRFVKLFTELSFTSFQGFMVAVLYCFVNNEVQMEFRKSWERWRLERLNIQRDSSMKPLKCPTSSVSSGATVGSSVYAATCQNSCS
substance,measurement,value
"[^14Leu,^28Gln]Exendin-4-(1-32)-fGLP-1-(33-37)-miniPEG-(S)-2,6-diamino-1-(pyrrolidin-2-cyano-1-yl)hexan-1-amide (peptide)",GLP Cyclase EC50,0.017 nM

# Reference: patent publication US20100286365A1
